Results as given in US20200079833A1 (AstraZeneca / MedImmune, published 2020).
Starred links: 1 amine or outer side, 2 acyl side, 3 side chain; linkers in the order of their positions; H or OH if unused. Non-standard residues stand in square brackets, D forms with d. Groups on a side chain read outwards from the residue. Primed or numbered codes have the meaning given here. No end group written: not given here. *: point of attachment. γGlu = O=C(O)[C@H](CCC(=O)[*:2])N[*:1]; Palmitoyl = CCCCCCCCCCCCCCCC(=O)*; αMeF = C[C@](N)(Cc1ccccc1)C(=O)O; αMeK = C[C@](N)(CCCCN)C(=O)O; Lauroyl = CCCCCCCCCCCC(=O)*; αMeS = C[C@](N)(CO)C(=O)O; PEG2′ = not defined here; Aib = CC(C)(N)C(=O)O

T1: glucose-dependent insulinotropic peptide (gastric inhibitory polypeptide) receptor (GIPR), primary cAMP assay (human, UniProt P48546 22-466)
T1 sequence (looked up): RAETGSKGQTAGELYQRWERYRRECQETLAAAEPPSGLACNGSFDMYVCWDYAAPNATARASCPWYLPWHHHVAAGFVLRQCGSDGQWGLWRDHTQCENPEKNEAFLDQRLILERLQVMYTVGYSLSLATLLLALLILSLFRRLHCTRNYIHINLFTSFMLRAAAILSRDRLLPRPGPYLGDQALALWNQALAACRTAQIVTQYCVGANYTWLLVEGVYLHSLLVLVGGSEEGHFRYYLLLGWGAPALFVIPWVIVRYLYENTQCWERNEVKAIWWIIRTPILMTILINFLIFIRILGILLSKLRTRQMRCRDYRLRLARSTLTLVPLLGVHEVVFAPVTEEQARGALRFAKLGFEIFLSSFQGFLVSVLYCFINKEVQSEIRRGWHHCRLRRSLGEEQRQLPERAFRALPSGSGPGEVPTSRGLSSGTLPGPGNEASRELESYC

T2: GLP-1R in the INS1e assay (UniProt P32301 22-463, limits assumed)
T2 sequence (looked up): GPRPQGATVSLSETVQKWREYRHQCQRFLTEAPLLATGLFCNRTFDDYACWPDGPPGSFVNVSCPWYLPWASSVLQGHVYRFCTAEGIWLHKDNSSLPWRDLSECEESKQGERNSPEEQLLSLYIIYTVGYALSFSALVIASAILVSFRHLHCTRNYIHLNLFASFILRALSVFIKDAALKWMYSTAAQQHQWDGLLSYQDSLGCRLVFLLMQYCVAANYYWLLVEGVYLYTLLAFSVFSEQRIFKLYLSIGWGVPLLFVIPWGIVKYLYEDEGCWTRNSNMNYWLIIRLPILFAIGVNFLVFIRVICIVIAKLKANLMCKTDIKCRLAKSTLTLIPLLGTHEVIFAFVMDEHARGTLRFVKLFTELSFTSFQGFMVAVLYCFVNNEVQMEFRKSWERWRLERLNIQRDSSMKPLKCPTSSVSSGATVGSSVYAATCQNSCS


Molecular target: T1, glucose-dependent insulinotropic …
Experiment: cell-based or functional assay

Binder | Primary assay EC50 (cAMP), n1 [nM] | Primary assay EC50 (cAMP), n2 [nM]
H[Aib]EGTFTSDVSK([PEG2′-PEG2′-γGlu-Palmitoyl])YLEGEAAEEFIK([PEG2′-PEG2′-γGlu-Palmitoyl])WVVEGG-NH2 [SEQ ID NO: 242] | 21.4 | 21.4
H[Aib]EGS[αMeF]TSDV[αMeS]SYK([PEG2′-PEG2′-γGlu-Palmitoyl])EGEAA[αMeK]EFIAK([PEG2′-PEG2′-γGlu-Palmitoyl])VVEGG-NH2 [SEQ ID NO: 272] | 21.9 | 21.9
H[Aib]EGS[αMeF]TSDK([PEG2′-PEG2′-γGlu-Lauroyl])SSYLEGEAA[αMeK]EFIAWK([PEG2′-PEG2′-γGlu-Lauroyl])VEGG-NH2 [SEQ ID NO: 258] | 22.3 | 22.3
H[Aib]EGS[αMeF]TSDV[αMeS]SK([PEG2′-PEG2′-γGlu-Palmitoyl])LEGEAA[αMeK]EFIAK([PEG2′-PEG2′-γGlu-Palmitoyl])VVEGG-NH2 [SEQ ID NO: 266] | 22.2 | 22.2

The next lines start with the values.

Primary assay EC50 (cAMP), n1 [nM] | Primary assay EC50 (cAMP), n2 [nM] | Binder
21.5 | 21.5 | H[Aib]EGTFTSDVSK([PEG2′-PEG2′-γGlu-Palmitoyl])FLEGEAAEEFIK([PEG2′-PEG2′-γGlu-Palmitoyl])WVVEGG-NH2 [SEQ ID NO: 243]
21.9 | 21.9 | H[Aib]EGS[αMeF]TSDK([PEG2′-PEG2′-γGlu-Palmitoyl])SSYLEGEAA[αMeK]EFIAK([PEG2′-PEG2′-γGlu-Palmitoyl])VVEGG-NH2 [SEQ ID NO: 260]
21.5 | 21.5 | H[Aib]EGS[αMeF]TSDV[αMeS]SYK([PEG2′-PEG2′-γGlu-Palmitoyl])EGEAA[αMeK]EFIAWK([PEG2′-PEG2′-γGlu-Palmitoyl])VEGG-NH2 [SEQ ID NO: 273]
22.2 | 22.2 | H[Aib]EGTFTSDVSK([PEG2′-PEG2′-γGlu-Lauroyl])YLEGEAAEEFIK([PEG2′-PEG2′-γGlu-Lauroyl])WVVEGG-NH2 [SEQ ID NO: 236]

Molecular target: GLP-1 receptor (GLP-1R), primary cAMP assay (human, UniProt P43220 24-463)
Experiment: cell-based or functional assay

Binder | Primary assay EC50 (cAMP) Mean [nM] | Primary assay EC50 (cAMP), n1 [nM] | Primary assay EC50 (cAMP), n2 [nM]
H[Aib]EGTFTSDVSK([PEG2′-PEG2′-γGlu-Palmitoyl])YLEGEAAEEFIK([PEG2′-PEG2′-γGlu-Palmitoyl])WVVEGG-NH2 [SEQ ID NO: 242] | 3.85 | 3.58 | 4.11
H[Aib]EGS[αMeF]TSDV[αMeS]SYK([PEG2′-PEG2′-γGlu-Palmitoyl])EGEAA[αMeK]EFIAK([PEG2′-PEG2′-γGlu-Palmitoyl])VVEGG-NH2 [SEQ ID NO: 272] | 0.335 | 0.339 | 0.331
H[Aib]EGS[αMeF]TSDK([PEG2′-PEG2′-γGlu-Lauroyl])SSYLEGEAA[αMeK]EFIAWK([PEG2′-PEG2′-γGlu-Lauroyl])VEGG-NH2 [SEQ ID NO: 258] | 0.0923 | 0.0596 | 0.125
H[Aib]EGS[αMeF]TSDV[αMeS]SK([PEG2′-PEG2′-γGlu-Palmitoyl])LEGEAA[αMeK]EFIAK([PEG2′-PEG2′-γGlu-Palmitoyl])VVEGG-NH2 [SEQ ID NO: 266] | 0.479 | 0.4 | 0.557

Now from value to binder:

Primary assay EC50 (cAMP) Mean [nM] | Primary assay EC50 (cAMP), n1 [nM] | Primary assay EC50 (cAMP), n2 [nM] | Binder
3.21 | 2.93 | 3.48 | H[Aib]EGTFTSDVSK([PEG2′-PEG2′-γGlu-Palmitoyl])FLEGEAAEEFIK([PEG2′-PEG2′-γGlu-Palmitoyl])WVVEGG-NH2 [SEQ ID NO: 243]
0.389 | 0.334 | 0.443 | H[Aib]EGS[αMeF]TSDK([PEG2′-PEG2′-γGlu-Palmitoyl])SSYLEGEAA[αMeK]EFIAK([PEG2′-PEG2′-γGlu-Palmitoyl])VVEGG-NH2 [SEQ ID NO: 260]
0.762 | 0.741 | 0.783 | H[Aib]EGS[αMeF]TSDV[αMeS]SYK([PEG2′-PEG2′-γGlu-Palmitoyl])EGEAA[αMeK]EFIAWK([PEG2′-PEG2′-γGlu-Palmitoyl])VEGG-NH2 [SEQ ID NO: 273]
0.0217 | 0.0165 | 0.0268 | H[Aib]EGTFTSDVSK([PEG2′-PEG2′-γGlu-Lauroyl])YLEGEAAEEFIK([PEG2′-PEG2′-γGlu-Lauroyl])WVVEGG-NH2 [SEQ ID NO: 236]

Molecular target: glucagon receptor (GCGR), primary cAMP assay (human, UniProt P47871 26-477)
Sequence (P47871 26-477): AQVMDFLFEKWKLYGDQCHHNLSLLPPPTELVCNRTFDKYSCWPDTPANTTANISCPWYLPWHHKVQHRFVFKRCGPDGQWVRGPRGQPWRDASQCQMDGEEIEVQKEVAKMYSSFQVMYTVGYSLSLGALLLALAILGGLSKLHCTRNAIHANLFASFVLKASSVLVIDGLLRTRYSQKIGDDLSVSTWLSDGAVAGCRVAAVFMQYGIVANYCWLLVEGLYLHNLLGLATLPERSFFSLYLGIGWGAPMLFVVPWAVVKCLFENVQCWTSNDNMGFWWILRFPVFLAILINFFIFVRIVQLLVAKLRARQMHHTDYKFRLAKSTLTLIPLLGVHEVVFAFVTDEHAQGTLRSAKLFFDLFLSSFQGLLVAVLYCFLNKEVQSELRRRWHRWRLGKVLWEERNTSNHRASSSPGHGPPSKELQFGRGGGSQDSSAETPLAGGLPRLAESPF
Experiment: cell-based or functional assay

Binder | Primary assay EC50 (cAMP), n1 [nM] | Primary assay EC50 (cAMP), n2 [nM]
H[Aib]EGTFTSDVSK([PEG2′-PEG2′-γGlu-Palmitoyl])YLEGEAAEEFIK([PEG2′-PEG2′-γGlu-Palmitoyl])WVVEGG-NH2 [SEQ ID NO: 242] | 21.4 | 21.4
H[Aib]EGS[αMeF]TSDV[αMeS]SYK([PEG2′-PEG2′-γGlu-Palmitoyl])EGEAA[αMeK]EFIAK([PEG2′-PEG2′-γGlu-Palmitoyl])VVEGG-NH2 [SEQ ID NO: 272] | 21.9 | 21.9
H[Aib]EGS[αMeF]TSDK([PEG2′-PEG2′-γGlu-Lauroyl])SSYLEGEAA[αMeK]EFIAWK([PEG2′-PEG2′-γGlu-Lauroyl])VEGG-NH2 [SEQ ID NO: 258] | 22.3 | 22.3
H[Aib]EGS[αMeF]TSDV[αMeS]SK([PEG2′-PEG2′-γGlu-Palmitoyl])LEGEAA[αMeK]EFIAK([PEG2′-PEG2′-γGlu-Palmitoyl])VVEGG-NH2 [SEQ ID NO: 266] | 22.2 | 22.2

Further lines, results first:

Primary assay EC50 (cAMP), n1 [nM] | Primary assay EC50 (cAMP), n2 [nM] | Binder
21.5 | 21.5 | H[Aib]EGTFTSDVSK([PEG2′-PEG2′-γGlu-Palmitoyl])FLEGEAAEEFIK([PEG2′-PEG2′-γGlu-Palmitoyl])WVVEGG-NH2 [SEQ ID NO: 243]
21.9 | 21.9 | H[Aib]EGS[αMeF]TSDK([PEG2′-PEG2′-γGlu-Palmitoyl])SSYLEGEAA[αMeK]EFIAK([PEG2′-PEG2′-γGlu-Palmitoyl])VVEGG-NH2 [SEQ ID NO: 260]
21.5 | 21.5 | H[Aib]EGS[αMeF]TSDV[αMeS]SYK([PEG2′-PEG2′-γGlu-Palmitoyl])EGEAA[αMeK]EFIAWK([PEG2′-PEG2′-γGlu-Palmitoyl])VEGG-NH2 [SEQ ID NO: 273]
22.2 | 22.2 | H[Aib]EGTFTSDVSK([PEG2′-PEG2′-γGlu-Lauroyl])YLEGEAAEEFIK([PEG2′-PEG2′-γGlu-Lauroyl])WVVEGG-NH2 [SEQ ID NO: 236]

Molecular target: T2, GLP-1R in the INS1e assay
Experiment: cell-based or functional assay

INS1e assay EC50 (cAMP) Mean [nM] | INS1e assay EC50 (cAMP) n1 [nM] | INS1e assay EC50 (cAMP) n2 [nM] | Binder
12.3 | 12 | 12.7 | H[Aib]EGTFTSDVSK([PEG2′-PEG2′-γGlu-Lauroyl])YLEGEAAEEFIK([PEG2′-PEG2′-γGlu-Lauroyl])WVVEGG-NH2 [SEQ ID NO: 236]
